B1: pp1a-15 (peptide)
peptide: QLSLPVLQV
modifications: not checked
B2: pp1a-1652 (peptide)
peptide: YLSSVLLAL
modifications: not checked
B3: pp1a-2990 (peptide)
peptide: ALSGVFCGV
modifications: not checked
B4: pp1a-3816 (peptide)
peptide: KLNIKLLGI
modifications: not checked
B5: pp1a-3745 (peptide)
peptide: LLFITGNTL
modifications: not checked
B6: pp1a-3848 (peptide)
peptide: VLLSVLQQL
modifications: not checked
B7: pp1a-2755 (peptide)
peptide: LLCVLAALV
modifications: not checked
B8: pp1a-103 (peptide)
peptide: TLGVLVPHV
modifications: not checked
B9: pp1a-1288 (peptide)
peptide: MLSRALKKV
modifications: not checked
B10: pp1a-3560 (peptide)
peptide: MLLTFLTSL
modifications: not checked
B11: pp1a-1139 (peptide)
peptide: SLQVCVQTV
modifications: not checked
B12: pp1a-634 (peptide)
peptide: KLSAGVEFL
modifications: not checked
B13: pp1a-4219 (peptide)
peptide: VLGSLAATV
modifications: not checked
B14: pp1a-2187 (peptide)
peptide: CLDAGINYV
modifications: not checked
B15: pp1a-2207 (peptide)
peptide: AMWLLLLSI
modifications: not checked
B16: pp1a-3616 (peptide)
peptide: FLLPSLATV
modifications: not checked
B17: pp1a-651 (peptide)
peptide: FLITGVFDI
modifications: not checked
B18: pp1a-3459 (peptide)
peptide: FLNRFTTTL
modifications: not checked
B19: pp1a-3444 (peptide)
peptide: VLAWLYAAV
modifications: not checked
B20: pp1a-445 (peptide)
peptide: TLNEDLLEI
modifications: not checked

Consider 20 molecules from patent US20110262529A1.

The first experiment deals with HLA-A*0201 (human), P04439. Briefly: T2 cell HLA-A*0201 stabilisation, affinity category by BL50.
Consider B1, for which the BL50 is under 100 µM. B2 returned a BL50 of under 100 µM.

B3 came in with a BL50 of under 100 µM. In turn, B4 yielded a BL50 of under 100 µM. On the same count and under the same terms, the same measure for B5: 100 to 200 µM. Regarding B6, the BL50 lay within 100 to 200 µM. The molecule B7 yielded a BL50 of 100 to 200 µM. Molecule B8 registered a BL50 of under 100 µM.

With B9, the BL50 is under 100 µM.

Molecule B10 gave a BL50 of under 100 µM. On the same count and under the same terms, the same measure for B11: under 100 µM. Still for that read-out and setting: the same measure for B12: under 100 µM; for B13: under 100 µM; for B14: under 100 µM.

In a further experiment the target is HLA-A*0201 (human), P04439.
Experiment: not given
B1 came in with a BL50 (half-maximal binding level) of 75.7 µM. B2 registered a BL50 (half-maximal binding level) of 6.7 µM.

As to B3, the BL50 (half-maximal binding level) was determined as 6.2 µM. In turn, B4 registered a BL50 (half-maximal binding level) of 68.1 µM.

In the case of B15, the BL50 (half-maximal binding level) amounted to 323 µM. The same measure, in the same setting: the same measure for B5: 154 µM. Same read-out and setting: the same measure for B6: 102 µM; for B16: 31.8 µM.

As to B7, the BL50 (half-maximal binding level) was 187 µM. Consider B8, for which the BL50 (half-maximal binding level) was 3.1 µM.

The molecule B17 displayed a BL50 (half-maximal binding level) of 8.4 µM.

With B9, the BL50 (half-maximal binding level) amounted to 65.1 µM. B18: the BL50 (half-maximal binding level) was found to be 39.6 µM.

Molecule B10 had a BL50 (half-maximal binding level) of 47.1 µM. The molecule B19 registered a BL50 (half-maximal binding level) of 53 µM.

With B11, the BL50 (half-maximal binding level) stood at 4.9 µM. The molecule B12 came in with a BL50 (half-maximal binding level) of 59.8 µM.

Turning to B13, the BL50 (half-maximal binding level) was 53.3 µM. Still for that read-out and setting: the same measure for B20: 19.2 µM. On the same count and under the same terms, the same measure for B14: 3 µM.
